Data: article PMC10986502

Tested on: His6-Fur (Riemerella anatipestifer CH-1)
Test: EMSA
Details: 5 mM Mn2+ (surrogate for Fe2+); EMSA: 2.5% glycerol, 0.05% NP-40, 5 mM MgCl2, 1 uM ZnSO4, 5 mM MnCl2; 1 ug DNA, 2-8 ug Fur in 20 uL; room temperature 20 min; pH and salt not given; 6% native …

Substance: rhuB promoter (194 bp)
- Kd: 4.3 nM
